The values below come from patent US20210371878A1.

The target of assay [1] is C-intein of DnaE from Nostoc punctiforme fused to the C-terminal half of EGFP, 3xflag (product of pAAV2.1-CMV-3' EGFP intein) (Nostoc punctiforme). The assay is described as follows: cell-based or functional assay.
Assay [2] deals with C-intein of Npu DnaE fused to 3' ABCA4 (set 1, from Cys1150), 3xflag (product of pzac-CMV260-3' ABCA4 intein) (Nostoc punctiforme; human) (UniProt P78363). The assay is described as follows: cell-based or functional assay.

In turn, “N-terminal half of EGFP fused to the N-intein of DnaE from Nostoc punctiforme, 3xflag (product of pAAV2.1-CMV-5' EGFP intein)” showed an EGFP protein amount by Western blot band intensity, relative to a single AAV plasmid in assay [1] of 76%.
As for “5' ABCA4 (set 1, split at Cys1150) fused to the N-intein of Npu DnaE, 3xflag (product of pzac-CMV260-5' ABCA4 intein) (from UniProt P78363 1-1150)”, the Full-length ABCA4 by Western blot band intensity, relative to the single AAV plasmid (HEK293, set 1) in assay [2] is 61%.
